Two molecules from patent publication US20130273046A1 (published 2013) can be followed below.

The target of the experiment is human EDAR-Fc. The experiment can be described thus: SPR (Biacore); Fab fragment.
Sequence of human EDAR-Fc (chain, as listed by the source): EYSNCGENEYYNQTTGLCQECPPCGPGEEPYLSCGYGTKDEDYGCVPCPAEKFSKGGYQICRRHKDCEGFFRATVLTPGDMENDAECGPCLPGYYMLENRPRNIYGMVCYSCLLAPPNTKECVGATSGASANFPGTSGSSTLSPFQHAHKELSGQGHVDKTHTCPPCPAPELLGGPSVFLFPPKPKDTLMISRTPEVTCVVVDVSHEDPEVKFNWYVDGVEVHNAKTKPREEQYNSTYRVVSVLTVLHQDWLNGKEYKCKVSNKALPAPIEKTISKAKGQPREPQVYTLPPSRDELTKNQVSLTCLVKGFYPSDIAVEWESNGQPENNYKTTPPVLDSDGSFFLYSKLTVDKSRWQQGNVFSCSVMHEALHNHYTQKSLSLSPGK

B1: mAbEDAR6 (antibody, V domains shown)
VH: EVQLQQSGPELVKPGASVKMSCKASGYSFTGYNMHWVKQSHGKSLEWIGYIDPYNGATSKNQKFKGKATLTVDKSSTTAYIQLNSLTSEDSAVYYCARYYYGDYHWYFDVWGAGTTVTVSS
VL: DVVMTQTPLSLPVSLGDQASISCRSSQSLVHSNGNTYLHWYLQQPGQSPKLLIYKVSNRFSGVPDRFSGSGSGTDFTLKISRVEAEDLGVYFCSQHTHVPPTFGAGTKLELKR
Take B1: the Kd (in general, a measure of binding affinity in units of concentration) worked out at 1.58 nM.

B2: mAbEDAR2 (antibody, V domains shown)
VH: QVQLQQPGAELVKPGASVKLSCKASGYTFTSYWMQWVKQRPGQGIEWIGEIDPSDSYTYYNQKFKGKATLTIDKSSSTAYMQLSSLTSEDSAVYYCSRKNYYRGMDYWGQGTSVTVSS
VL: DVLMTQTPLSLPVSLGDQASISCRSSQNIVQSNGNTYLEWYLQKPGQSPKLLIYKVSNRFSGVPDRFSGSGSGTDFTLKISRVEADDLGVYYCFQVSHVPYTFGGGTKLEIKR
In the case of B2, the Kd amounted to 1 nM. Against the preceding molecule, the Kd is about 1.6-fold lower.
